# Reference: paper PMC9146559, “Recombinant Integrin β1 Signal Peptide Blocks Gliosis Induced by Aβ Oligomers” (International Journal of Molecular Sciences, 2022)
# B1: GST-Rs recombinant fusion protein (integrin β1 signal peptide, amino acids 1–20) (domain or fragment, UniProt P05556 1-20, looked up)
# chain: MNLQPIFWIGLISSVCCVFA
# notes: signal peptide in the construct; integrin β1 (ITGβ1) amino acids 1-20, PCR from pCMV6-XL5-ITGB1 (Origene); The fragment was cloned through EcoRI sites, so linker residues from the vector are likely; The printed forward primer (ATG AAT TTA CAA CC) encodes M-N-L-Q-P, which fits the human cDNA; also called Rs peptide; recombinant integrin β1 signal peptide
# Biological target: T1, amyloid β protein fragment 1–42 (synthetic Aβ peptide, oligomer preparation) (UniProt P05067 672-713)
# T1 construct: amyloid beta 1-42, the cut product of the amyloid precursor protein; One preparation that holds monomeric and oligomeric forms, which are seen as separate bands on non-reducing SDS-PAGE; also called Aβ1–42; Aβ oligomers; source: synthetic peptide; oligomers prepared from hexafluoroisopropanol film, DMSO, Hams F-12, 4 °C for 24 h, supernatant after 14,000 x g
# Assay: pull-down; glutathione beads coated with 500 ng GST0 or GST fusion protein, incubated with 100 pM Aβ oligomers in 50 mM Tris-HCl pH7.5, 5 mM MgCl2, 20 mM KCl, 500 µg/mL BSA for 1 h at RT; washed, eluted under non-reducing conditions, SDS-PAGE and Western blot with 6E10
# Settings: both partners purified
binder,measurement,value
B1,binding result,binds
